Measurements published in PMC5971202.
Where a chain is given by its changes, count along the chain named. Read-outs that look alike come from different tables or passages of the source.

T1: rDDX1-K52A (human, UniProt Q92499 1-728, K52A)
T1 sequence: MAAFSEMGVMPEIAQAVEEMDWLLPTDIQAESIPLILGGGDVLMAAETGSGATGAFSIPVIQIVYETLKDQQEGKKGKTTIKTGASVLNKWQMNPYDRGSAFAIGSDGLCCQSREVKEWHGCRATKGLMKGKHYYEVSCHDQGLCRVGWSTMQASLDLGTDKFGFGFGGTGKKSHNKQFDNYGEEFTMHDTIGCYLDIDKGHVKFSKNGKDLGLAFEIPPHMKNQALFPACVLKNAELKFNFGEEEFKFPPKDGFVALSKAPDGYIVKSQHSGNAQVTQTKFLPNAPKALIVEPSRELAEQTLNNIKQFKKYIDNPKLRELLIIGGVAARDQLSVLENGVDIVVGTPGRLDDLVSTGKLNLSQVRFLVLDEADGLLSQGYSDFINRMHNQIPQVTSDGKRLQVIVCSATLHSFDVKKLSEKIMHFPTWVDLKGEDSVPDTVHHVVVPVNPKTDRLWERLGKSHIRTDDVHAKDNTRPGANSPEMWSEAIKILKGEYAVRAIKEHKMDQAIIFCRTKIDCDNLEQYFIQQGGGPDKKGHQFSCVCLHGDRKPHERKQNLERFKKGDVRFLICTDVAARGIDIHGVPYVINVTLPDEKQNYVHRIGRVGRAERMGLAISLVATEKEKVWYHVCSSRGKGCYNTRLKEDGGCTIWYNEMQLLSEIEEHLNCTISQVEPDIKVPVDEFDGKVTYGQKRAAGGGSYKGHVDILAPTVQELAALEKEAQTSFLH

T2: rDDX1 (WT) (human, UniProt Q92499 1-728)
T2 sequence: T1 sequence with A52K


Tests used:
Assay in all cases: EMSA
rDDX1-K52A [1] = target: T1, rDDX1-K52A
rDDX1 (WT) [2] = target: T2, rDDX1 (WT)
rDDX1-K52A [3] = target: T1, rDDX1-K52A; remark: listed apart in the source
rDDX1 (WT) [4] = target: T2, rDDX1 (WT); remark: listed apart in the source

| Binder | binding result (rDDX1-K52A [1]) | binding result (rDDX1 (WT) [2]) | binding result (rDDX1-K52A [3]) | binding result (rDDX1 (WT) [4]) |
| --- | --- | --- | --- | --- |
| GAGCUGGGGUGAGCUGGGGUGAGCUGGGGUGAGCUGGGGU (structured_RNA) [Sμ4G RNA 32P] | binds | binds |  |  |
| GAGCUGCGCUGAGCUGCGCUGAGCUGCGCUGAGCUGCGCU (ssRNA) [Sμ4Gmut RNA 32P] |  | no binding |  |  |
| ATCGGAATGTATGAGAATAGAAGAGATAATGAATAATAGAA (ssDNA) [Single-stranded DNA] |  |  | no binding | no binding |
